From PMC5724578 (Biochemistry, 2017)

Target: VASP EVH1 domain (wild type) (human, UniProt P50552 2-115)
Test: NMR titration

B1: Zyxin proline rich region, residues 41-140 (domain or fragment, human, UniProt Q15942 41-140, looked up)
chain: PGDSEPPPAPGAQRAQMGRVGEIPPPPPEDFPLPPPPLAGDGDDAEGALGGAFPPPPPPIEESFPPAPLEEEIFPSPPPPPEEEGGPEAPIPPPPQPREK
B1 showed a Kd of 32.2 ± 1.7 µM.
